Legend:
[1] = molecular target: T1, VHH FC5; test: SPR, VHH flowed over immobilized FC5, 25 C
T1 construct: put together from its FR and CDR entries; also called FC5-VHH; FC5 control
Excerpt: (§1) Surface Plasmon Resonance for VHH antibodies. […] Monomeric VHH fractions were collected and protein concentration determined by measuring A280 measurement. Using a Biacore T200 instrument (GE Healthcare), approximately 500-1000 RUs of FC5DIE3IR, FC5 and an irrelevant VHH (2A3-H4) were immobilized on a CM5 Series S sensor chip (GE Healthcare) at pH 4.0 using standard amine coupling according to the manufacturer's instructions (GE Healthcare). […] Surfaces were regenerated by washing with a 120 s pulse of 10 mM glycine pH 1.5. Data were analyzed with Biacore T200 Software v 3.0 and affinities determined using steady state binding or a 1:1 binding model.
(§2) Surface Plasmon Resonance (SPR).

[2] = molecular target: T2, FC5DIE3IR recombinant protein; test: SPR (Biacore T200), VHH flowed over immobilized FC5DIE3IR, steady-state fit, 25 C
T2 construct: Made in CHO-3E7 cells; also called FC5DIE31R; FC5DIE3R
Excerpt: as §1, §2

T1 sequence (VHH, as listed by the source): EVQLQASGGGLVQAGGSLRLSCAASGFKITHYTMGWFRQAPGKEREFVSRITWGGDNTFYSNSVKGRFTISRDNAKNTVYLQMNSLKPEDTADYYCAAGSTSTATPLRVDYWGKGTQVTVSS

B1: VHH DI-48 (VHH)
VHH: QVQLVESGGGLVQAGGSLRLSCAASGRTFSTYVMGWFRQTPGKEREFVAGFSWSGDYAIYVNSVKGRFTISRDNAKNTVYLQMNSLRPEDTAVYYCAARQRGGYSGRSYYTGRNDYEYWGQGTQVTVSS
notes: From the FC5DIE3IR llama immune library; soluble tagged monomer in SPR; not shown: cmyc and His6 tags at the C-terminus
binding result [1]: no binding (tested: 312 nM-5000 nM) | Kd [2]: 8.4 µM

From patent US20210206842A1 (NATIONAL RESEARCH COUNCIL OF CANADA, published 2021)
